Source: PMC11746035 (Frontiers in Immunology, 2024)

Molecular target: T1, SARS-CoV-2 BQ.1.1 RBD (SARS-CoV-2, Omicron BQ.1.1, L452R | K444T)
T1 construct: also called L452R RBD of BQ.1.1
Test: BLI; antibody (IgG1, 11 μg/mL) loaded on AHC2 biosensor to about 1.5 nm; RBD in solution, association 300 s, dissociation 600 s; PBS-TB (PBS, 0.02% v/v Tween-20, 0.1% w/v BSA); 25°C; 1,000 rpm; binding response less than 0.1 considered non-binding
Details: both partners purified

B1: BD57-028 N56 allelic variant (antibody, V domains shown)
VH: QITLKESGPTLVKPTQTLTLTCTFSGFSLSASGEGMGWIRQPPGKALEWLALIYWNADERYSPSLRSRLTITKDTSKNQVVLKMTNMNPVDTATYYCAHHSITTVVDYWGQGMLVTVSS
VL: QSALTQPASVSGSPGQSITISCTGTISDVGAFNYVSWYQQHPGRAPKLIIYDVSTRPSGISIRFSGSKSGNTASLTISGLQPEDEADYYCSSYSHTSLVFGTGTKVTVL
notes: as the heavy chain of m8, with N56 in place of D56; numbers count on: IMGT unique numbering, excluding any gaps; as the light chain of m8; IgG1; also called N56 allele
With B1 the “fold increase in binding affinity against the D56 variant” value was 57 fold.

B2: BD56-595 N56 allelic variant (antibody, V domains shown)
VH: QITLKESGPTLVKPTQTLTLTCTFSGFSITTAGVGVGWIRQPPGKALEWLALIYWNGDRRYSPSLKNRVDITTDISKNQVVLTMTNMAPVDTATYYCAQHTIDMILDYWGQGTLVTVSS
VL: QSALTQPPSASGSPGQSVTISCTATSSDVGAYNYVSWYQQHPGKAPKLMIYEVNKRPSGVPDRFSGSKSGNTASLTVSGLQAEDEADYYCSSYTDNIVFGTGTRVTVL
notes: as the heavy chain of m12, with N56 in place of D56; numbers count on: IMGT unique numbering, excluding any gaps; as the light chain of m12; IgG1; also called N56 allele
In the case of B2, the “fold increase in binding affinity against the D56 variant” value is reported as 57 fold.
